Patent US20200283521A1 (GRANULAR THERAPEUTICS, published 2020)
Changes are numbered by the printed parent chain. Blank lines part the entries; values can stand above or below the binder they belong to.

Columns and labels:
[1] = molecular target: T1, cynomolgus monkey C-KIT-Fc (cynomolgus monkey); assay: HTRF competition vs Tb-h37M IgG1
T1 construct: also called cyno C-KIT-Fc
Procedure: Reagents were added sequentially into 384-well low-volume black plates (Nunc).

[2] = molecular target: T1, cynomolgus monkey C-KIT-Fc; assay: direct titration ELISA on coated C-KIT-Fc, IgG1 format
Procedure: Direct titration ELISA for second-generation designer IgGs binding to human and cyno C-KIT-Fc proteins.
To coat Greiner Bio-One High bind ELISA plates, target proteins were diluted to 1 μg/ml in carbonate buffer and added at 100 μl per well, at 4° C., o/n. Coated plates were washed 3× with PBS pH7.4, blocked with 1% BSA in PBS (380 μl/well) for 1 hr at RT, then washed 3× with PBS-Tween 20 (PBST). C-KIT antibodies (100 μl/well; diluted in PBST) were then added and then incubated 1 hr at RT. Plates were then washed 3× with PBST and goat anti-human kappa chain-HRP added (100 μl/well) at RT, for 1 hr. Plates were then washed 3× with PBST and twice with PBS before the addition of 100 μl TMB per well. Reactions were stopped by adding 100 μl 2M H₂SO₄/well and OD was read on a plate reader at 450 nm.

[3] = molecular target: T2, MS4A1 (human, UniProt P11836); assay: cell array, transfected fixed HEK293 cells
T2 construct: expressed in transfected HEK293 cells; also called CD20
T2 sequence (looked up): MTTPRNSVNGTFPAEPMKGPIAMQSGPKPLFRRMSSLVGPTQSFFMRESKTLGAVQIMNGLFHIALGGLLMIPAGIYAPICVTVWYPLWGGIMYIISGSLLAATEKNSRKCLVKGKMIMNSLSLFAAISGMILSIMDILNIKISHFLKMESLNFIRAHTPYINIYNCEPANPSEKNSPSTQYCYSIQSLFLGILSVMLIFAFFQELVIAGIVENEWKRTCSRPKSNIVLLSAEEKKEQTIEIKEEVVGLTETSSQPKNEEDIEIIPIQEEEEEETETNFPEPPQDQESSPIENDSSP
Procedure: (§1) Transfection of all plasmids was confirmed by screening for the co-encoded marker ZS green (FIG. 13A).
(§2) Primary hits (duplicate spots) were identified by analysing fluorescence (AF647 and ZsGreenl) on ImageQuant. Vectors encoding all hits were sequenced to confirm their correct identities. […] Slides were analysed as above.

[4] = molecular target: T3, KRT19 (human, UniProt P08727); assay: cell array, transfected fixed HEK293 cells
T3 construct: expressed in transfected HEK293 cells
T3 sequence (looked up): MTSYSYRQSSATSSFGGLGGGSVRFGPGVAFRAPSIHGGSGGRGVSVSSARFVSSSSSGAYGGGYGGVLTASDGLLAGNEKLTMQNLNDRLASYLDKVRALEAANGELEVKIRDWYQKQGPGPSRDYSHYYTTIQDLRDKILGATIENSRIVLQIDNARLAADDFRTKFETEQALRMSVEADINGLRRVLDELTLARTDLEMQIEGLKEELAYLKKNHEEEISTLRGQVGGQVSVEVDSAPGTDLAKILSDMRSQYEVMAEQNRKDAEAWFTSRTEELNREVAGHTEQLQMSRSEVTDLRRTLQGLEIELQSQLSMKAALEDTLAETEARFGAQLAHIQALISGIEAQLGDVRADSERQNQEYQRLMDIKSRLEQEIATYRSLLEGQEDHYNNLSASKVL
Procedure: as §1, §2

[5] = molecular target: T4, DES (human, UniProt P17661); assay: cell array, transfected fixed HEK293 cells
T4 construct: expressed in transfected HEK293 cells
T4 sequence (P17661 2-470 limits assumed): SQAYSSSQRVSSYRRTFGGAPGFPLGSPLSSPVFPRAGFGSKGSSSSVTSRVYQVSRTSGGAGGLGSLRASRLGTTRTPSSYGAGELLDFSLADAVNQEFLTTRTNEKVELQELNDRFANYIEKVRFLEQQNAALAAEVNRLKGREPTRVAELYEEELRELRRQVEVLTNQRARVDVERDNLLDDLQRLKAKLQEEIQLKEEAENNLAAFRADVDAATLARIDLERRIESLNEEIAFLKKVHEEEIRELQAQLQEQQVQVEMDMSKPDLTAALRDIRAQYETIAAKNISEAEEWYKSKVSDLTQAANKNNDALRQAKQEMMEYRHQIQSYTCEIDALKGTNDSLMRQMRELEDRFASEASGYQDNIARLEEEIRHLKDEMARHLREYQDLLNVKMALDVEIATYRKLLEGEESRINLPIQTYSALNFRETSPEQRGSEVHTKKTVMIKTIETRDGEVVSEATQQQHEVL
Procedure: as §1, §2

[6] = molecular target: T5, PPT1 (human, UniProt P50897); assay: cell array, transfected fixed HEK293 cells
T5 construct: expressed in transfected HEK293 cells
T5 sequence (looked up): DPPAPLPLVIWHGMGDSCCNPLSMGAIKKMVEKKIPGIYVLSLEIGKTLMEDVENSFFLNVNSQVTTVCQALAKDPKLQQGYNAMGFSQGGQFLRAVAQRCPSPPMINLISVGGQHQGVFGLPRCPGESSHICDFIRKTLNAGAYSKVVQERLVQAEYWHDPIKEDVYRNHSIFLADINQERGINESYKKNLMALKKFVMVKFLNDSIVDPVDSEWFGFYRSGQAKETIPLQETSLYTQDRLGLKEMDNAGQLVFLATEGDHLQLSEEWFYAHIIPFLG
Procedure: as §1, §2

- IC50 [1]: 0.036 µg/mL
- EC50 (read off the curve) [2]: ~0.1 µg/mL
B1: MH5, human IgG1 (antibody, V domains shown)
VH: QVQLVQSGAEVKKPGASVKVSCKASGYTFTDYYMNWVRQAPGQGLEWMGRIYPGSGNTYYAQKFQGRVTMTRDTSTSTVYMELSSLRSEDTAVYYCARGVYYYDYWGQGTLVTVSS
VL: DIQMTQSPSSLSASVGDRVTITCRASQGIRTNLAWFQQKPGKAPKSLIYSASSLQSGVPSRFSGSGSGTDFTLTISSLQPEDFATYYCQQYANYPRTFGGGTKVEIK
notes: IgG1; also called C-KIT-MH5; C-KIT-MHS

- binding result [3]: no binding (tested: 2 µg/ml)
- binding result [4]: no binding (tested: 2 µg/ml)
- binding result [5]: no binding (tested: 2 µg/ml)
- binding result [6]: no binding (tested: 2 µg/ml)
B2: MH1, human IgG1 (antibody, V domains shown)
VH: B1 VH
VL: B1 VL with S50A, A92N, N93S
notes: IgG1; also called IgG1-MH1
